# Experimental data taken from article PMC10786891, “Massively parallel profiling of RNA-targeting CRISPR-Cas13d”.
# Where a chain is given by its changes, count along the chain named. In names and notes the source's numbering stands.
# T1: EsCas13d, nuclease-dead (Eubacterium siraeum, UniProt B0MS50, R295A;H300A;R849A;H854A)
# T1 sequence: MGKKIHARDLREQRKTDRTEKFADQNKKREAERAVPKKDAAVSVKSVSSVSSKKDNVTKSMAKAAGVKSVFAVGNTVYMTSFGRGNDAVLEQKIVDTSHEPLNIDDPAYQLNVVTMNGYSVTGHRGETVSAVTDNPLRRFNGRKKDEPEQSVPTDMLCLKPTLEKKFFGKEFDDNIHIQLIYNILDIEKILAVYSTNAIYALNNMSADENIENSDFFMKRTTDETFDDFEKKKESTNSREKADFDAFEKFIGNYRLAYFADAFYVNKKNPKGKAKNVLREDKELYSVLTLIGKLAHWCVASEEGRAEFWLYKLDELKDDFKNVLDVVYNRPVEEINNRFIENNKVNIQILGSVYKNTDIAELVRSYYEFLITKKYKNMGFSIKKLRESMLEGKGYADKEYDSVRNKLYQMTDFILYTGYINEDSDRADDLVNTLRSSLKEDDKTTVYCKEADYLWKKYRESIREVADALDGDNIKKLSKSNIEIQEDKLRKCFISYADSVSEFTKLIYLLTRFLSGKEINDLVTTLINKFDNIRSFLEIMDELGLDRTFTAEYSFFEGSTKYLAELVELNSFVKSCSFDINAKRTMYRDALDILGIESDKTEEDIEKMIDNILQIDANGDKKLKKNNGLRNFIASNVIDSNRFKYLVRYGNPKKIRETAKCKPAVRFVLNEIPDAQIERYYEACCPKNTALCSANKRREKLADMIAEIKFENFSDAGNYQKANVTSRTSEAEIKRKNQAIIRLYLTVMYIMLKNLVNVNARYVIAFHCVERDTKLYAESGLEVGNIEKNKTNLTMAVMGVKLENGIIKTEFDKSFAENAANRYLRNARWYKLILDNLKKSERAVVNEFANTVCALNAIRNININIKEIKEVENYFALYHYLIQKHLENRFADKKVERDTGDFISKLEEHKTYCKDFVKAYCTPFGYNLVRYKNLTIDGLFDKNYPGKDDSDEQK
# B1: target 1 insA 3' of 13,insG 3' of 7 (mixed)
# RNA 1: CACCCGUGCAAAAAUGCAGGGGUCUAAAACUGAGCGGAUAACCUCUCUAUGG
# RNA 2: GGGAAUGGAUCCACAUCUACGAAUUCGUACCAUAGAGAGAGUUAUCGCGCUCACCGAGAUCGGAAGAGCACACGU
# B2: target 1 insA 3' of 10,insG 3' of 6 (mixed)
# RNA 1: B1 RNA 1
# RNA 2: B1 RNA 2 with A40G, G41U, U43A, G47C, C48G
# B3: target 1 complement block 5-10 (mixed)
# RNA 1: B1 RNA 1
# RNA 2: GGGAAUGGAUCCACAUCUACGAAUUCGUACCAUAGAGAGGUAUAGGCCUCACCGAGAUCGGAAGAGCACACGU
# B4: target 1 insU 3' of 9,insG 3' of 6 (mixed)
# RNA 1: B1 RNA 1
# RNA 2: B1 RNA 2 with A40G, G41U, U43A, A44U, G47C, C48G
# B5: target 1 A14G,C22U (mixed)
# RNA 1: B1 RNA 1
# RNA 2: B3 RNA 2 with C30U, A38G, A42U, U43A, A44U, G45C, G46C, C47G
# B6: target 2 MT 5'PFS GCU 3'PFS UGU (mixed)
# RNA 1: CACCCGUGCAAAAUUGCAGGGGUCUAAAACCUUCUCCAAAUUGUUUCAUCCU
# RNA 2: GGGAAUGGAUCCACAUCUACGAAUUCGCUAGGAUGAAACAAUUUGGAGAAGUGUAGAUCGGAAGAGCACACGU
# B7: target 2 MT 5'PFS UUU 3'PFS CUA (mixed)
# RNA 1: B6 RNA 1
# RNA 2: B6 RNA 2 with G27U, C28U, U52C, G53U, U54A
# B8: target 2 MT 5'PFS GCC 3'PFS AAA (mixed)
# RNA 1: B6 RNA 1
# RNA 2: B6 RNA 2 with U29C, U52A, G53A, U54A
# B9: target 2 MT 5'PFS GUG 3'PFS AUU (mixed)
# RNA 1: B6 RNA 1
# RNA 2: B6 RNA 2 with C28U, U29G, U52A, G53U
# B10: target 2 MT 5'PFS CCU 3'PFS CCC (mixed)
# RNA 1: B6 RNA 1
# RNA 2: B6 RNA 2 with G27C, U52C, G53C, U54C
# B11: target 2 MT 5'PFS GCC 3'PFS AAG (mixed)
# RNA 1: B6 RNA 1
# RNA 2: B6 RNA 2 with U29C, U52A, G53A, U54G
# B12: target 2 MT 5'PFS GUG 3'PFS AUC (mixed)
# RNA 1: B6 RNA 1
# RNA 2: B6 RNA 2 with C28U, U29G, U52A, G53U, U54C
# B13: target 2 MT 5'PFS UAA 3'PFS AAG (mixed)
# RNA 1: B6 RNA 1
# RNA 2: B6 RNA 2 with G27U, C28A, U29A, U52A, G53A, U54G
# B14: target 2 MT 5'PFS UUU 3'PFS CUC (mixed)
# RNA 1: B6 RNA 1
# RNA 2: B6 RNA 2 with G27U, C28U, U52C, G53U, U54C
# B15: target 2 MT 5'PFS AUA 3'PFS CCA (mixed)
# RNA 1: B6 RNA 1
# RNA 2: B6 RNA 2 with G27A, C28U, U29A, U52C, G53C, U54A
# B16: target 2 MT 5'PFS CUG 3'PFS AGU (mixed)
# RNA 1: B6 RNA 1
# RNA 2: B6 RNA 2 with G27C, C28U, U29G, U52A
# B17: target 2 MT 5'PFS GAU 3'PFS UAC (mixed)
# RNA 1: B6 RNA 1
# RNA 2: B6 RNA 2 with C28A, G53A, U54C
# B18: target 2 MT 5'PFS UAA 3'PFS AAA (mixed)
# RNA 1: B6 RNA 1
# RNA 2: B6 RNA 2 with G27U, C28A, U29A, U52A, G53A, U54A
# B19: target 2 MT 5'PFS GUG 3'PFS AUA (mixed)
# RNA 1: B6 RNA 1
# RNA 2: B6 RNA 2 with C28U, U29G, U52A, G53U, U54A
# B20: target 2 MT 5'PFS GUG 3'PFS AUG (mixed)
# RNA 1: B6 RNA 1
# RNA 2: B6 RNA 2 with C28U, U29G, U52A, G53U, U54G
# B21: target 2 MT 5'PFS GAU 3'PFS UAG (mixed)
# RNA 1: B6 RNA 1
# RNA 2: B6 RNA 2 with C28A, G53A, U54G
# B22: target 2 MT 5'PFS GAU 3'PFS UAU (mixed)
# RNA 1: B6 RNA 1
# RNA 2: B6 RNA 2 with C28A, G53A
# B23: target 2 MT 5'PFS GUC 3'PFS CAA (mixed)
# RNA 1: B6 RNA 1
# RNA 2: B6 RNA 2 with C28U, U29C, U52C, G53A, U54A
# B24: target 2 MT 5'PFS GAC 3'PFS UCC (mixed)
# RNA 1: B6 RNA 1
# RNA 2: B6 RNA 2 with C28A, U29C, G53C, U54C
# B25: target 2 MT 5'PFS UAA 3'PFS AAC (mixed)
# RNA 1: B6 RNA 1
# RNA 2: B6 RNA 2 with G27U, C28A, U29A, U52A, G53A, U54C
# B26: target 2 MT 5'PFS CUG 3'PFS AGA (mixed)
# RNA 1: B6 RNA 1
# RNA 2: B6 RNA 2 with G27C, C28U, U29G, U52A, U54A
# B27: target 2 MT 5'PFS UUU 3'PFS CUG (mixed)
# RNA 1: B6 RNA 1
# RNA 2: B6 RNA 2 with G27U, C28U, U52C, G53U, U54G
# B28: target 2 MT 5'PFS GAG 3'PFS CUU (mixed)
# RNA 1: B6 RNA 1
# RNA 2: B6 RNA 2 with C28A, U29G, U52C, G53U
# B29: target 2 MT 5'PFS CUG 3'PFS AGC (mixed)
# RNA 1: B6 RNA 1
# RNA 2: B6 RNA 2 with G27C, C28U, U29G, U52A, U54C
# B30: target 2 MT 5'PFS CGA 3'PFS ACU (mixed)
# RNA 1: B6 RNA 1
# RNA 2: B6 RNA 2 with G27C, C28G, U29A, U52A, G53C
# B31: target 2 MT 5'PFS GCU 3'PFS UGC (mixed)
# RNA 1: B6 RNA 1
# RNA 2: B6 RNA 2 with U54C
# B32: target 2 MT 5'PFS GAU 3'PFS UAA (mixed)
# RNA 1: B6 RNA 1
# RNA 2: B6 RNA 2 with C28A, G53A, U54A
# B33: target 2 MT 5'PFS CGC 3'PFS AGC (mixed)
# RNA 1: B6 RNA 1
# RNA 2: B6 RNA 2 with G27C, C28G, U29C, U52A, U54C
# B34: target 2 MT 5'PFS UAA 3'PFS AAU (mixed)
# RNA 1: B6 RNA 1
# RNA 2: B6 RNA 2 with G27U, C28A, U29A, U52A, G53A
# B35: target 2 MT 5'PFS AUA 3'PFS CCG (mixed)
# RNA 1: B6 RNA 1
# RNA 2: B6 RNA 2 with G27A, C28U, U29A, U52C, G53C, U54G
# B36: target 2 MT 5'PFS CGC 3'PFS AGG (mixed)
# RNA 1: B6 RNA 1
# RNA 2: B6 RNA 2 with G27C, C28G, U29C, U52A, U54G
# B37: target 2 MT 5'PFS GCC 3'PFS AAC (mixed)
# RNA 1: B6 RNA 1
# RNA 2: B6 RNA 2 with U29C, U52A, G53A, U54C
# Target: T1, EsCas13d, nuclease-dead
# Assay: crRNA (strand 1, pre-loaded); Mg2+; 40 mM Tris-HCl pH 7.5, 150 mM NaCl, 6 mM MgCl2, 1 mM DTT, 0.1% Tween-20, 0.2 mg/ml BSA; 25 C; 10 min per concentration, then washed
# Settings: tags: His6-TwinStrep-SUMO cleaved; N-terminal SNAP kept (SNAP-Surface 488); label: 3' end held by stalled T7 RNA polymerase
binder,measurement,value
B1,Kd,4.48 ± 0.22 nM
B2,Kd,9.9 ± 0.4 nM
B3,Kd,14.5 ± 0.7 nM
B4,Kd,12.1 ± 1.4 nM
B5,Kd,~49 nM
B6,Kd,17.7 ± 2.7 nM
B7,Kd,16 ± 3.2 nM
B8,Kd,11.9 ± 3.4 nM
B9,Kd,11.3 ± 0.9 nM
B10,Kd,5.3 ± 2 nM
B11,Kd,22 ± 5 nM
B12,Kd,10.8 ± 0.8 nM
B13,Kd,4.5 ± 0.6 nM
B14,Kd,8.4 ± 0.9 nM
B15,Kd,15.9 ± 2.5 nM
B16,Kd,3.7 ± 0.6 nM
B17,Kd,16 ± 3.4 nM
B18,Kd,2.9 ± 0.8 nM
B19,Kd,11.3 ± 1.5 nM
B20,Kd,13.8 ± 1.3 nM
B21,Kd,13.4 ± 2.7 nM
B22,Kd,16 ± 4 nM
B23,Kd,9.8 ± 1.7 nM
B24,Kd,50 ± 15 nM
B25,Kd,6.6 ± 1 nM
B26,Kd,2.16 ± 0.2 nM
B27,Kd,7.7 ± 1 nM
B28,Kd,8.9 ± 0.7 nM
B29,Kd,2.52 ± 0.2 nM
B30,Kd,17 ± 7 nM
B31,Kd,12.9 ± 2.1 nM
B32,Kd,12 ± 4 nM
B33,Kd,6.1 ± 1.5 nM
B34,Kd,4.7 ± 0.6 nM
B35,Kd,8.5 ± 0.8 nM
B36,Kd,3.4 ± 0.5 nM
B37,Kd,17 ± 5 nM
